Laboratory results from the supplement of paper PMC12042874.
± gives the uncertainty stated by the source.

Test: amyloid nucleation score (Sup35N fusion, yeast selection) (log enrichment); library NNK1; higher = more nucleation; inactive = no reads after selection
Procedure, shortened: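 In psi-negative yeast, Sup35N fusions carrying peptides of 20 random codons were induced with 100 μM copper sulfate for 24 hours. The cells then grew 7 days at 30°C on medium lacking adenine and uracil, and plasmid inserts from input and output were Illumina-sequenced, excluding sequences with under 100 input reads. Nucleation score is the DiMSum log enrichment of output over input reads, centred on the mode score of non-aggregating sequences.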

| Substance | amyloid nucleation score |
| --- | --- |
| GKRSDIVLMLLIEMGHMLSQ | 3.1 ± 0.13 |
| GKTRK | -0.782 ± 1.7 |
| GLDCVRGNQWVNQGVL | 2.32 ± 0.15 |
| GLEDRNRWKVWFITLCRGIA | 0.71 ± 1.1 |
| GLETNNLARLVCGSRCFLSD | -0.894 ± 2.4 |
| GLFFNNKYA | 0.54 ± 0.84 |
| GLFTVNDV | 0.374 ± 0.36 |
| GLGLCRVE | -0.373 ± 0.38 |
| GLGTAYIGLCWHTIWHAAGV | 1.46 ± 0.16 |
| GLLGGIGRRRTMG | -0.643 ± 0.46 |
| GLLIGDT | 0.437 ± 0.48 |
| GLMLHCGGLCWLLVVV | -0.539 ± 0.41 |
| GLNSDGLWLLSLNTRKSRAH | -0.349 ± 1.1 |
| GLRTLEPYRYVIIMVPGQVA | -0.164 ± 0.68 |
| GLSTMQCVNICFWSYVTW | 1.37 ± 0.26 |
| GLSVFSCQFFFNSTAFFSVN | 6.061 ± 0.06 |
| GLSWGIFALDTRSPGILRSV | -0.436 ± 0.35 |
| GLTKYV | -0.462 ± 0.28 |
| GLVFWNIYCRNFYLL | 6.83 ± 0.078 |
| GLVLTIWHLRTAEERIVYRA | 1.58 ± 0.26 |
| GLVVIGRSCDDYESIMTRSM | 0.171 ± 0.41 |
| GLWHAC | inactive |
| GLYIFYLSNWLFHPRF | 0.339 ± 0.43 |
| GLYSTGNFDVGRSLCDHMGS | -0.492 ± 1.1 |
| GLYYSFRFYTFSVYRALRGS | -0.392 ± 1.1 |

| Substance | amyloid nucleation score |
| --- | --- |
| GMCPLNRNGGFGNGVVEGVV | 0.166 ± 1.6 |
| GMDCH | -0.175 ± 0.25 |
| GMLISTSIMHNES | 0.164 ± 0.4 |
| GMQIKYNLCSRKTLVENGIS | 3.48 ± 0.12 |
| GMSGYKKFCSGIWWSLNQCS | 0.408 ± 0.42 |
| GNICSTLAINVGLIFSKECV | inactive |
| GNLLRTSIDRLLYSWSTIVV | -0.187 ± 0.46 |
| GNLVCGCVVLQIMHIERGMA | 7.481 ± 0.046 |
| GNMSPFKNLTFAEQLDAPRD | 0.016 ± 1.2 |
| GNVIGGNMVVQWYSFCTVCV | 6.342 ± 0.062 |
| GNVSDYVVMIGVMVSLPCLI | -0.222 ± 0.56 |
| GNVYVKISVTVFADDYVLRV | 3.81 ± 0.11 |
| GNYSG | inactive |
| GNYSIARGLKNDKWCFFSSY | -0.234 ± 1.6 |
| GNYTS | -0.894 ± 0.59 |
| GPALTHTHS | 0.306 ± 0.63 |
| GPDINSCRSCFSWYIVWFLV | 0.318 ± 0.7 |
| GPSLGVIFKEIWFYYG | 0.541 ± 0.3 |
| GQAWCTLTCRGTGPSQLGWV | -0.508 ± 0.57 |
| GQDSGSSNVFSSCICNLHVF | 7.715 ± 0.046 |
| GQFEHGVGVQQSSGSTQRWL | -1.21 ± 2.4 |
| GQFSRSCGTVHNQSVYRRCL | 1.5 ± 0.48 |
| GQKVMIAHGTQETIHGGCCG | -0.275 ± 0.49 |
| GQNLGRSRLGNVYRGPCGNC | -0.095 ± 1.1 |
| GQQLCVIFYSTCDSYKMLSD | 3.26 ± 0.089 |

| Substance | amyloid nucleation score |
| --- | --- |
| GQSYRRNIMCTSFLWLGNRN | 1.05 ± 0.53 |
| GQTVNCNATYFSVTIVGIVG | 2.8 ± 0.13 |
| GRCLCGLVDDYFYNAYWVLP | -0.555 ± 0.35 |
| GRECLRCTFKMVGWVATEIA | -0.521 ± 0.71 |
| GRGQWQPAFTKLPYLILSVV | -0.152 ± 0.94 |
| GRGRKVYLVDLGSGL | -0.285 ± 0.53 |
| GRIYLVWVDSTCRRVCKTLV | 0.082 ± 0.29 |
| GRNTGFFHFLWLFRYVTLVM | -1.58 ± 1.7 |
| GRPFALRWLDLGLLTDDPKG | -0.164 ± 0.32 |
| GRSFYNCPPLRIHCLCIMEV | 0.557 ± 0.68 |
| GRSLY | -0.413 ± 0.46 |
| GSCGYSTVVDVVCYLDLLLI | 0.131 ± 0.43 |
| GSELGIKRTLSLFICLWIIG | -0.731 ± 0.36 |
| GSFYSGI | 1.6 ± 0.76 |
| GSGKCVPGDTELAILGLKR | 0.299 ± 0.7 |
| GSIERFTFISVYYRLTPLSG | -0.035 ± 0.54 |
| GSKGMGSERQVECFTKI | -0.505 ± 0.37 |
| GSLLLMGRTMDVYQNRHFFH | 0.651 ± 0.28 |
| GSLPIRNTFTWGEL | inactive |
| GSNDPSVLTAVVLMLLKHRG | 2.04 ± 0.35 |
| GSNGMRGLRWGL | -0.485 ± 0.31 |
| GSRSLLQR | -1.06 ± 1.2 |
| GSRYHEECRWTCREAPTDAR | -1.07 ± 1.6 |
| GSVCRCSDAPVSFRVGNSVG | -0.078 ± 0.27 |
| GSVLKLYRGITHSRNERRGP | -0.171 ± 1.1 |

| Substance | amyloid nucleation score |
| --- | --- |
| GSWATVWVVKDPEVADCCGL | -1.53 ± 1.6 |
| GSWNALRLRCVNVVRTGVMN | -0.496 ± 0.59 |
| GSYGLDGILDQWTPLHSLGG | 0.64 ± 0.46 |
| GSYRLKCCTYLVGKY | 1.73 ± 0.28 |
| GTCYGCLLILVCSLFGSTTG | 1.12 ± 0.66 |
| GTNFS | 0.498 ± 0.97 |
| GTRVR | 1.51 ± 0.48 |
| GTSSYMV | -0.01 ± 0.23 |
| GTVSDGMSVIRVKGMRWSDY | 1.13 ± 0.73 |
| GTYFSGIVVVFLVGVLAR | -0.207 ± 0.49 |
| GVDGYDLRGLSWEVAKEFKS | 0.73 ± 0.67 |
| GVGIFAIYWFTMPHVRPRVI | -1.13 ± 1 |
| GVGVLLSYSELFDSTIEGPT | 0.664 ± 0.59 |
| GVISAGYFAGYETKLLLKGD | 0.983 ± 0.97 |
| GVKFNSDMSCQFRRVLVEIA | -0.057 ± 1.7 |
| GVKSQYALNKLGCGELWLRL | 0.364 ± 0.28 |
| GVMGYFVC | -0.405 ± 0.27 |
| GVMRKNMNKAWFTRDIDSF | 0.752 ± 0.41 |
| GVRETHLPSMLRRTALRFTF | 0.026 ± 0.36 |
| GVRMLGFVRV | 0.261 ± 0.2 |
| GVVACLFFWVRAFFYR | inactive |
| GVVSKQSYVRITLGTGPSGE | 0.476 ± 1.2 |
| GVVTLFTEYSSEPCRCGFRQ | -0.21 ± 0.53 |
| GVWGQFQVSILWRHKCDLSG | inactive |
| GVYSGVVSRSL | -0.21 ± 0.34 |

| Substance | amyloid nucleation score |
| --- | --- |
| GWHLHFC | 0.492 ± 0.22 |
| GWMNCHNSTWRVGQALSSSR | 0.282 ± 0.48 |
| GWNHWADTSGTLGK | 0.502 ± 0.73 |
| GWRSGVWLGSV | -1.32 ± 0.77 |
| GWTIKSSYYG | -0.906 ± 1.4 |
| GWWGHGFALRSFVLIAHLDV | 0.06 ± 0.72 |
| GWYFPILRDLRNVGGVF | -0.677 ± 1.1 |
| GWYFYG | 0.702 ± 0.32 |
| GYARILKDLGYPFPYDLQHL | inactive |
| GYENGDGDERD | -0.403 ± 1.2 |
| GYGAKWVLVVS | 1.25 ± 0.47 |
| GYGIGDGRVHTQNKVGCYGG | 1.33 ± 0.66 |
| GYIDFCFLWD | -0.333 ± 0.21 |
| GYLQR | 0.158 ± 0.59 |
| GYPIDGMYKRAALVRMDICF | 0.718 ± 0.92 |
| GYPWVV | 0.993 ± 0.55 |
| GYSCRVIWNTNWTALFT | inactive |
| GYSGGKLLVGGTYTRIV | 0.243 ± 0.43 |
| GYWGPVFSGRCIPVNNK | -0.186 ± 1.5 |
| HAAEGIDESRKHSRHLIIVW | 0.029 ± 0.34 |
| HALMTARAFTCPWRMVVKFQ | 0.897 ± 0.61 |
| HANISLRSWRFRYHCREFKG | 1.47 ± 0.2 |
| HANLGFS | -0.742 ± 0.78 |
| HCHFIFGGMIGS | -0.144 ± 1.2 |
| HCINGCYNSEDVIIVDLLAF | inactive |

| Substance | amyloid nucleation score |
| --- | --- |
| HCPCGCYTPFLAKRMSSVLV | 0.362 ± 0.26 |
| HCRYMMSRVILSCILARPQ | 2.55 ± 0.15 |
| HDLEIPICTWEYSVVIQGLQ | 0.005 ± 1.4 |
| HEFHRLDVAVYRG | -0.132 ± 0.29 |
| HEPFDSDHTVARRETCLFGR | -0.928 ± 0.52 |
| HEVWH | -0.379 ± 0.55 |
| HFCFGC | 7.377 ± 0.062 |
| HFGAYLVVM | -0.299 ± 0.35 |
| HFNYNNTSMFSLTHSWHGIM | 4.71 ± 0.089 |
| HFRDCVPYFMVSRSRGELGE | -0.42 ± 0.75 |
| HFYFIYCSQIQVFKQV | 7.422 ± 0.065 |
| HGIIHFVLQMW | 1.85 ± 0.49 |
| HGLAYCGRQLFGARFILRYR | 0.255 ± 0.23 |
| HGRLTYSDVVNVRTFPGLMK | -0.232 ± 0.25 |
| HGRQE | 0.184 ± 1 |
| HGSIQSV | inactive |
| HGYFSNMWSYRRYQLLKLSP | 0.664 ± 0.77 |
| HHLVLQRD | 0.347 ± 0.28 |
| HHMRCLGTLNNLCKCCFEER | 3.41 ± 0.11 |
| HHNNDSDYKLREN | 0.116 ± 0.48 |
| HHSYKYCKLAFWTRSSKWNR | 0.7 ± 0.71 |
| HHWNLIEHYMLDECMEHLNS | -0.183 ± 0.31 |
| HILSHFVSCSRYL | -0.09 ± 1.4 |
| HILTMDLLPTPLSRQLRNMN | -0.763 ± 0.97 |
| HISLHYYKICNRFDLYNKDS | 7.107 ± 0.065 |

| Substance | amyloid nucleation score |
| --- | --- |
| HIYSRYQERRLVFVWYACND | 0.134 ± 0.38 |
| HKDVQGYVD | 1.01 ± 0.97 |
| HLCVTTGSSLL | -0.58 ± 0.98 |
| HLFTGNAYRGTRMGKLVGSH | 0.328 ± 0.41 |
| HLIDVTILGWDEVSIM | 1.26 ± 0.37 |
| HLIWL | -0.203 ± 1.1 |
| HLKHVWSYLPSSNVEEMQ | 0.766 ± 0.63 |
| HLWLFAGYMLLLKPKLKVCT | -0.625 ± 0.41 |
| HMLGKASGVLFNQRAVTGG | 0.696 ± 0.79 |
| HMTLCRRGFISGQADYFVQ | 0.275 ± 1.2 |
| HNCDYNCFNRGAHRVSEVGI | inactive |
| HNLDCKRVGSARTWIEWWVG | 0.07 ± 0.3 |
| HNMHFSPWIKCNSVYEFSGR | 1.56 ± 0.73 |
| HNQCHVKYDYHYL | -0.183 ± 0.78 |
| HPSSKLSRMCLD | 0.717 ± 0.93 |
| HQELMSFFLLCLH | inactive |
| HQLAFYRFCIASSCSWAYLS | 0.825 ± 0.41 |
| HQTEEISKSSFFQCNMVQCW | 2.94 ± 0.071 |
| HQVIQGVSYSTCG | 0.107 ± 0.38 |
| HQVVRSFGELHLLWCRLDEG | 0.204 ± 0.45 |
| HRAWAQVFFPELARSLVRSQ | 0.216 ± 0.6 |
| HRILVGGFRSCVMT | 0.311 ± 0.32 |
| HRRAFRQVVVTAGPKQASPM | 0.001 ± 0.56 |
| HRRFLAPME | 0.385 ± 0.3 |
